Experiment [1] addresses HA-tagged calnexin with deletion of the lumenal repeat segment (CNXΔ276-409) (UniProt P27824). Briefly: co-IP.
Experiment [2] deals with ABCA1-FLAG (ATP-Binding Cassette A1 cholesterol transporter, FLAG-tagged) (UniProt O95477). The experiment in a line: co-IP.
Experiment [3] addresses endogenous calnexin (CNX) (human (endogenous in HEK293T and HeLa)) (UniProt P27824). Briefly: co-IP.
Experiment [4] addresses myristoylated NefSF2 protein (HIV-1 SF2, UniProt P03407 1-210, myristoylated). Briefly: SPR. Background: SPR reads the build-up and loss of mass on a sensor chip optically.

One may read the Kd as the equilibrium constant for the complex coming apart. Broadly, the koff is the rate constant with which the complex falls apart. As a reminder, the kon is a measure of how fast the partners come together. Lower therefore signals slower complex formation.

For the molecule “HIV-1 Nef expressed from the Nef_(cons) vector (wild type) (natural protein)”, in experiment [1], the percent reduction of co-precipitated Nef against WT CNX came out at 40%. Take “Nef K4,7A (double lysine mutant of Nef_(cons)) (natural protein)”: the percent reduction of co-precipitated Nef against wild-type Nef in experiment [2] turned out to be 30%.

The molecule “Nef K4A (single lysine mutant of Nef_(cons)) (natural protein)” returned a percent reduction of co-precipitated Nef against WT Nef in experiment [3] of 80%.

Molecule “Nef K7A (single lysine mutant of Nef_(cons)) (natural protein)” showed a percent reduction of co-precipitated Nef against WT Nef in experiment [3] of 70%.

B1: cytoplasmic tail of calnexin (CNX-CT), recombinant (domain or fragment, UniProt P27824 503-592, looked up)
chain: CSGKKQTSGMEYKKTDAPQPDVKEEEEEKEEEKDKGDEEEEGEEKLEEKQKSDAEEDGGTVSQEEEDRKPKAEEDEILNRSPRNRKPRRE
In experiment [4], B1 yielded a Kd of 9.4 nM, a koff of 0.00857 s⁻¹ and an association rate constant (kon) of 908000 M⁻¹ s⁻¹.

(Values after article PMC5040351 (Arteriosclerosis, thrombosis, and vascular biology, 2016).)
